Data: patent publication US5977442A, “Salicylic acid induced map kinase and its use for enhanced disease resistance in plants” (priority 1997, dated 1999)

What was measured:
[1] = target: T1, p48 SIP kinase (Nicotiana tabacum, UniProt A0A1S3Z5Y0); assay: Kinetic properties, substrates, cofactors and pH dependence of p48 SIP kinase (in-solution kinase assay); assay type: biochemical, tobacco; conditions: pH of 5.5 or 10
T1 construct: endogenous in cells; host or cells: SA-treated tobacco suspension culture cells (purified through the poly-L-lysine agarose step)
Description: FIGS. 10A and 10B show a pair of graphs illustrating the effect of pH (FIG. 10A), Mg^2+ and Mn^2+ (FIG. 10B) on p48 SIP kinase activity. Approximately 0.5 unit of partially purified enzyme was used in each test. Buffers used for measuring the effect of pH were 50 mM 2-[N-morpholino]ethanesulfonic acid (Mes, pH 5.0-8.0, .circle-solid.), 50 mM Tris (pH 6.0-9.5, .tangle-solidup.), and 50 mM 3-[cyclohexylamino]-1-propanesulfonic acid (Caps, pH 9.0-12.0, .box-solid.). For testing the effects of Mg^2+ (.circle-solid.), and Mn^2+ (.tangle-solidup.), buffer B from the last purification step was first exchanged to Mg^2+ -free buffer using a desalting column. Mg^2+ was not added in reactions for testing the effect of Mn^2+.
FIG. 11 is a graph depicting the protein substrate preference of the p48 SIP kinase. About 0.5 unit of partially purified enzyme was used in each reaction. The assay conditions were as described below in Example 1, except various concentrations of MBP (.circle-solid.), histone (.tangle-solidup.), and casein (.box-solid.) were used.
Unless specifically indicated, assays were performed at room temperature for 20 minutes in a final volume of 15 μl containing 0.5 mg/mL of MBP, 50 μM of γ-^32 P-ATP (about 3000-6000 cpm/pmole), 25 mM Tris pH 7.5, 5 mM MgCl2, 1 mM EGTA, 1 mM DTT, and enzyme. The reaction was terminated by the addition of equal volume of 150 mM H3 PO4. Twenty μL of the mixture was spotted onto an 8-well phosphocellulose filter strip (Pierce, Ill.). After washing with 150 mM H3 PO4 extensively, the phospho-protein was eluted with 0.4 mL of 1 N NaOH, and the radioactivity was determined by liquid scintillation counting. Total cpm in the reaction mixture was also determined in order to calculate the specific activity of the enzyme preparation. One unit of p48 SIP kinase was defined as the amount of enzyme that will catalyze the transfer of 1 pmole of phosphate from ATP to MBP in 1 minute.

[2] = tested on: MBP; assay: Basal phosphorylation activity of recombinant SIP kinase produced in E. coli; assay type: biochemical; conditions: recombinant protein from E. coli
Excerpt: A tobacco clone that encodes an exemplary SIP kinase of the invention is described in detail herein. The nucleotide sequence of a cDNA encoding tobacco SIP kinase is set forth below as Sequence I.D. No. 1. It is believed that Sequence I.D. No. 1 constitutes a full-length SIP kinase-encoding clone as it contains a suitable methionine for initiation of translation.
Optionally, transgenic plants would be created containing mutations in the region encoding the active site of SIP kinase. This embodiment is preferred over the use of anti-sense constructs due to the very high homology between MAP kinases. For example, a mutated p48 SIP kinase with a Lys to Arg change in the kinase subdomain II has been made, and could be introduced into wild tobacco plants. […] Since the mutant p48 kinase would still serve as the substrate for upstream MAP kinase kinase and physically compete with the wild-type p48 SIP kinase, but would not transduce signal to downstream components, it may be possible to specifically block the pathway without affecting other MAP kinase cascades.

[3] = tested on: MBP; assay: Kinase activity assay during purification of p48 SIP kinase (MBP substrate); assay type: biochemical
Description: All purification procedures were carried out in a cold room or in a 4° C. chamber. Protein extract from about 200 grams of SA-treated cells was first fractionated by (NH4)2 SO4 precipitation. Saturated ammonium sulfate solution was slowly added to total protein extract to 30% of final concentration. After slowly stirring for 30 minutes, the precipitate was collected by centrifugation at 23,000×gfor 10 minutes. The pellets were then dissolved in a total of 30 mL of buffer A (25 mM Tris, pH 7.5, 1 mM EGTA, 10 mM β-glycerolphosphate, 0.1 mM Na3 VO4, 1 mM DTT, 5% glycerol) plus 1 mM phenylmethylsulfonyl fluoride, 5 μg/mL each of antipain, aprotinin, and leupeptin. […]
Unless specifically indicated, assays were performed at room temperature for 20 minutes in a final volume of 15 μl containing 0.5 mg/mL of MBP, 50 μM of γ-^32 P-ATP (about 3000-6000 cpm/pmole), 25 mM Tris pH 7.5, 5 mM MgCl2, 1 mM EGTA, 1 mM DTT, and enzyme. […] After washing with 150 mM H3 PO4 extensively, the phospho-protein was eluted with 0.4 mL of 1 N NaOH, and the radioactivity was determined by liquid scintillation counting. Total cpm in the reaction mixture was also determined in order to calculate the specific activity of the enzyme preparation. […]

T1 sequence (A0A1S3Z5Y0 whole entry): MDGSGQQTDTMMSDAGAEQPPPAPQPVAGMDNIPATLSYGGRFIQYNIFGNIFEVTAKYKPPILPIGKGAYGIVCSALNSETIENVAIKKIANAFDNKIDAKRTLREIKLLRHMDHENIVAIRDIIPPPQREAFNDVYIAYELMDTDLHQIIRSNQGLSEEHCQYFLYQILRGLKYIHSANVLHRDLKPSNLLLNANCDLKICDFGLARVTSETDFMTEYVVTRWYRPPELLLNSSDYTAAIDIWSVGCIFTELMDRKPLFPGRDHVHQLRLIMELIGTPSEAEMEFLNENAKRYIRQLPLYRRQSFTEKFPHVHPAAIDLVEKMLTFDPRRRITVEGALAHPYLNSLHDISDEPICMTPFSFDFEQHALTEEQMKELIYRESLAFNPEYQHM

B1: p48 SIP kinase: novel protein kinase isolated from tobacco, activated by salicylic acid; Sequence I.D. No. 2 (protein)
chain: MDGSGQQTDTMMSDAGAEQPPTAPQPVAGMDNIPATLSHGGRFIQYNIFGNIFEVTAKYKPPILPIGKGAYGIVCSALNSETIENVAIKKIANAFDNKIDAKRTLREIKLLRHMDHENIVAIRDIIPPPQREAFNDVYIAYELMDTDLHQIIRSNQGLSEEHCQYFLYQILRGLKYIHSANVLHRDLKPSNLLLNANCDLKICDFGLARVTSETDFMTEYVVTRWYRPPELLLNSSDYTAAIDVWSVGCIFMELMDRKPLFPGRDHVHQLRLIMELIGTPSEAEMEFLNENAKRYIRQLPLYRRQSFTEKFPHVHPTAIDLVEKMLTFDPRRRITVEGALAHPYLNSLHDISDEPICMTPFSFDFEQHALTEEQMKELIYRESLAFNPEYQHM
modifications: phosphorylated on tyrosine residue(s); serine/threonine phosphorylation also required for activity; positions not given
- retained kinase activity [1]: more than 50%
- phosphorylation of MBP / basal phosphorylation activity [2]: phosphorylates MBP
- specific activity ([3]; Superdex 200 HR 10/30 fraction): 339600.0 pmol/min/mg
- specific activity ([3]; final purified enzyme): 340000 pmol/min/mg
